B1: scFv; the commonest letter at each place (parent)
chain 1: EVKLDETGGGLVQPGRPMKLSCVASGFTFSDYWMNWVRQSPEKGLEWVAQIRNKPYNYETYYSDSVKGRFTISRDDSKSSVYLQMNNLRVEDMGIYYCTGSYYGMDYWGQGTSVTVS
chain 2: DVVMTQTPLSLPVSLGDQASISCRSSQSLVHSNGNTYLRWYLQKPGQSPKVLIYKVSNRFSGVPDRFSGSGSGTDFTLKISRVEAEDLGVYFCSQSTHVPWTFGGGTKLEIK

How the values were obtained:
fluorescein = variants of: B1; experiment: Kd (Tite-Seq); details: with fluorescein; format: scFv 4-4-20, heavy + light
[1] = variants of: B1; experiment: yeast surface expression (ratio to wild type); higher = more expressed; details: format: scFv 4-4-20, heavy + light

Row | Variant | Kd (fluorescein) | yeast surface expression [1]
1 | chain 1 F29P W36A | ≥ 10 µM | 0.456
2 | chain 1 S30W Y32Q | ≥ 10 µM | 0.646
3 | chain 1 G100R G104Q | ≥ 10 µM | 0.217
4 | chain 1 T28K W33D | ≥ 10 µM | 0.981
5 | chain 1 S101Q M105V | ≥ 10 µM | 0.835
6 | chain 1 G104D Y107L | ≥ 10 µM | 1.18
7 | chain 1 G104E | ≥ 10 µM | 1.04
8 | chain 1 G104P | ≥ 10 µM | 0.859
9 | chain 1 G104D | ≥ 10 µM | 0.918
10 | chain 1 Y103W D106K | ≥ 10 µM | 0.245
11 | chain 1 F29D M34I | ≥ 10 µM | 0.946
12 | chain 1 Y107S W108D | ≥ 10 µM | 0.322
13 | chain 1 M34P N35Q | ≥ 10 µM | 0.194
14 | chain 1 T28V W36H | ≥ 10 µM | 0.619
15 | chain 1 S30T V37W | ≥ 10 µM | 0.671
16 | chain 1 Y102D Y107K G109H | ≥ 10 µM | 0.302
17 | chain 1 S101M Y103A | ≥ 10 µM | 0.658
18 | chain 1 M105S G109T | ≥ 10 µM | 0.527
19 | chain 1 S101W G104H | ≥ 10 µM | 0.376
20 | chain 1 S30A N35Y | ≥ 10 µM | 0.655
21 | chain 1 G100F G109N | ≥ 10 µM | 0.41
22 | chain 1 W108K G109H | ≥ 10 µM | 0.44
23 | chain 1 W108K G109L | ≥ 10 µM | 0.219
24 | chain 1 Y102E G104E | ≥ 10 µM | 0.934

Row | Variant | Kd (fluorescein) | yeast surface expression [1]
25 | chain 1 G100D Y103C | ≥ 10 µM | 0.414
26 | chain 1 D106W W108S | ≥ 10 µM | 0.325
27 | chain 1 G100Y Y103C | ≥ 10 µM | 0.567
28 | chain 1 Y32Q W36N V37K | ≥ 10 µM | 0.902
29 | chain 1 Y107V W108D | ≥ 10 µM | 0.425
30 | chain 1 Y102C M105P | ≥ 10 µM | 0.69
31 | chain 1 G100P G104I | ≥ 10 µM | 0.337
32 | chain 1 S30G W33V | ≥ 10 µM | 1
33 | chain 1 S101R D106T | ≥ 10 µM | 0.466
34 | chain 1 M34F N35E | ≥ 10 µM | 0.811
35 | chain 1 G104H Y107R | ≥ 10 µM | 0.518
36 | chain 1 S101L Y103R | ≥ 10 µM | 0.702
37 | chain 1 F29S M34S | ≥ 10 µM | 0.543
38 | chain 1 D106H | ≥ 10 µM | 0.557
39 | chain 1 D106L | ≥ 10 µM | 0.466
40 | chain 1 S30G W36L | ≥ 10 µM | 0.597
41 | chain 1 W33M M34P | ≥ 10 µM | 0.576
42 | chain 1 F29Y V37L | ≥ 10 µM | 0.669
43 | chain 1 S101Y G104H | ≥ 10 µM | 0.343
44 | chain 1 Y102V D106I | ≥ 10 µM | 0.421
45 | chain 1 D31F V37E | ≥ 10 µM | 0.257
46 | chain 1 S101D W108N | ≥ 10 µM | 0.445
47 | chain 1 S101I Y102W | ≥ 10 µM | 0.303
48 | chain 1 Y103M D106G | ≥ 10 µM | 0.479

More lines, main results first:

Row | Kd (fluorescein) | Variant | yeast surface expression [1]
49 | ≥ 10 µM | chain 1 D31A W33I | 0.872
50 | ≥ 10 µM | chain 1 S101G Y103R | 0.949
51 | ≥ 10 µM | chain 1 S101G Y103C | 0.678
52 | 0.00204 µM | chain 1 D31R | 0.736
53 | 0.00371 µM | chain 1 D31T | 0.766
54 | 0.000825 µM | chain 1 D31N | 1.1
55 | ≥ 10 µM | chain 1 F29Q Y32L | 0.881
56 | 9.5 µM | chain 1 F29Q Y32C | 1
57 | ≥ 10 µM | chain 1 F29V N35D | 0.862
58 | 0.0624 µM | chain 1 T28Q F29Q V37S | 0.421
59 | ≥ 10 µM | chain 1 G100D G109N | 0.118
60 | ≥ 10 µM | chain 1 G100D G109V | 0.136
61 | 0.0353 µM | chain 1 M34I V37S | 0.776
62 | ≥ 10 µM | chain 1 S101I M105V | 0.468
63 | ≥ 10 µM | chain 1 G109C | 0.39
64 | ≥ 10 µM | chain 1 G109E | 0.504
65 | ≥ 10 µM | chain 1 T28E S30W Y32D | 0.574
66 | ≥ 10 µM | chain 1 D31K W33I M34N | 0.395
67 | ≥ 10 µM | chain 1 S101T Y107E | 0.565
68 | ≥ 10 µM | chain 1 D31R N35S V37L | 0.577
69 | 0.00184 µM | chain 1 T28E D31K | 0.969
70 | ≥ 10 µM | chain 1 Y103S G104N | 1.04
71 | ≥ 10 µM | chain 1 W33N | 1.01

Row | Kd (fluorescein) | Variant | yeast surface expression [1]
72 | ≥ 10 µM | chain 1 G100M G109M | 0.274
73 | ≥ 10 µM | chain 1 Y32M W33E | 1.18
74 | ≥ 10 µM | chain 1 S101I Y107Q | 0.376
75 | ≥ 10 µM | chain 1 M105G G109S | 0.794
76 | ≥ 10 µM | chain 1 G100S Y107D | 0.543
77 | 0.00343 µM | chain 1 F29S D31Y | 0.752
78 | 0.000504 µM | chain 1 T28K F29Y | 0.984
79 | ≥ 10 µM | chain 1 S101K Y107V | 0.507
80 | ≥ 10 µM | chain 1 G100N S101C | 0.234
81 | 0.00325 µM | chain 1 T28R D31K | 0.833
82 | ≥ 10 µM | chain 1 Y102W Y107G | 0.493
83 | 0.00575 µM | chain 1 Y102A M105F | 0.979
84 | ≥ 10 µM | chain 1 F29Q S30C N35I | 0.232
85 | 0.185 µM | chain 1 F29V Y32W M34W | 1.07
86 | ≥ 10 µM | chain 1 Y102V G104K | 0.494
87 | ≥ 10 µM | chain 1 W36T V37L | 0.507
88 | ≥ 10 µM | chain 1 W33M W36P | 0.591
89 | 0.02 µM | chain 1 F29C V37M | 0.763
90 | ≥ 10 µM | chain 1 N35L | 0.692
91 | 5.96 µM | chain 1 Y32S W36F | 0.853
92 | ≥ 10 µM | chain 1 F29A W36S | 0.313
93 | ≥ 10 µM | chain 1 S101Q Y102R | 1.07
94 | ≥ 10 µM | chain 1 Y103D G109D | 0.542

Row | Kd (fluorescein) | Variant | yeast surface expression [1]
95 | ≥ 10 µM | chain 1 Y103D G109R | 0.269
96 | ≥ 10 µM | chain 1 G100Q M105S | 0.521
97 | ≥ 10 µM | chain 1 T28N D31I Y32R | 0.627
98 | 0.0171 µM | chain 1 F29M Y32M | 1.21
99 | ≥ 10 µM | chain 1 G100D S101I | 0.0999
100 | ≥ 10 µM | chain 1 F29Q W36T | 0.359
101 | ≥ 10 µM | chain 1 F29Q W36H | 0.405
102 | 2.11 µM | chain 1 D31T W33F | 0.629
103 | 9.5 µM | chain 1 M34Q | 0.801
104 | 0.151 µM | chain 1 M34S | 0.652
105 | 2.47 µM | chain 1 Y32P W33C | 0.832
106 | 0.000479 µM | chain 1 Y102F W108T | 0.854
107 | 0.00871 µM | chain 1 S30F M34Y | 0.762
108 | 0.136 µM | chain 1 D106N Y107I G109S | 0.679
109 | 0.00166 µM | chain 1 T28L | 0.955
110 | ≤ 0.000316 µM | chain 1 S30R V37M | 1.02
111 | 0.0245 µM | chain 1 G100S Y103H | 1.01
112 | 0.24 µM | chain 1 D31S Y32G | 0.78
113 | 0.0302 µM | chain 1 G100E Y102S W108I | 0.245
114 | 0.0391 µM | chain 1 S30A V37Y | 1.1
115 | 0.02 µM | chain 1 G104F W108R | 0.146
116 | 3.74 µM | chain 1 M34V V37D | 0.584

Reference: the FLAb antibody collection (doi:10.7554/elife.23156)
